# Laboratory results reported in patent US10919943B2, “Mutant proteins enabling agrochemical control of plant gene expression” (The Regents of the University of California, priority 2016, dated 2021).
# Changes are numbered by the printed parent chain. In names and notes the source's numbering stands.
# T1: PYR1 (Arabidopsis thaliana, UniProt O49686)
# T1 construct: expressed in transfected cells; host or cells: S. cerevisiae strain Y190
# T1 sequence (O49686 1-191): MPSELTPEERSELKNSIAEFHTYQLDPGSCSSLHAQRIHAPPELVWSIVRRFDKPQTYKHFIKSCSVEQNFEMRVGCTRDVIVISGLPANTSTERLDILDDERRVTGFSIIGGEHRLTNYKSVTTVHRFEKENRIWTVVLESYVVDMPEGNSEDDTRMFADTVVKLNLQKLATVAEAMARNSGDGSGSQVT
# B1: V393Q: HAB1 mutant (protein, listed as Arabidopsis thaliana)
# chain: MEEMTPAVAMTLSLAANTMCESSPVEITQLKNVTDAADLLSDSENQSFCNGGTECTMEDVSELEEVGEQDLLKTLSDTRSGSSNVFDEDDVLSVVEDNSAVISEGLLVVDAGSELSLSNTAMEIDNGRVLATAIIVGESSIEQVPTAEVLIAGVNQDTNTSEVVIRLPDENSNHLVKGRSVYELDCIPLWGTVSIQGNRSEMEDAFAVSPHFLKLPIKMLMGDHEGMSPSLTHLTGHFFGVYDGHGGHKVADYCRDRLHFALAEEIERIKDELCKRNTGEGRQVQWDKVFTSCFLTVDGEIEGKIGRAVVGSSDKVLEAVASETVGSTAVVALVCSSHIVVSNCGDSRAVLFRGKEAMPLSVDHKPDREDEYARIENAGGKVIQWQGARVFGQLAMSRSIGDRYLKPYVIPEPEVTFMPRSREDECLILASDGLWDVMNNQEVCEIARRRILMWHKKNGAPPLAERGKGIDPACQAAADYLSMLALQKGSKDNISIIVIDLKAQRKFKTRT
# B2: E203W: HAB1 mutant (protein, listed as Arabidopsis thaliana)
# chain: B1 chain with E203W, Q393V
# B3: V393K: HAB1 mutant (protein, listed as Arabidopsis thaliana)
# chain: B1 chain with Q393K
# B4: E203D: HAB1 mutant (protein, listed as Arabidopsis thaliana)
# chain: B1 chain with E203D, Q393V
# B5: V393R: HAB1 mutant V393R, denoted HAB1^! (protein, listed as Arabidopsis thaliana)
# chain: B1 chain with Q393R
# B6: E203T: HAB1 mutant (protein, listed as Arabidopsis thaliana)
# chain: B1 chain with E203T, Q393V
# B7: G392D: HAB1 mutant (protein, UniProt Q9CAJ0 23-511, looked up, variant G392D)
# Protein phosphatase 2C 16: SPVEITQLKNVTDAADLLSDSENQSFCNGGTECTMEDVSELEEVGEQDLLKTLSDTRSGSSNVFDEDDVLSVVEDNSAVISEGLLVVDAGSELSLSNTAMEIDNGRVLATAIIVGESSIEQVPTAEVLIAGVNQDTNTSEVVIRLPDENSNHLVKGRSVYELDCIPLWGTVSIQGNRSEMEDAFAVSPHFLKLPIKMLMGDHEGMSPSLTHLTGHFFGVYDGHGGHKVADYCRDRLHFALAEEIERIKDELCKRNTGEGRQVQWDKVFTSCFLTVDGEIEGKIGRAVVGSSDKVLEAVASETVGSTAVVALVCSSHIVVSNCGDSRAVLFRGKEAMPLSVDHKPDREDEYARIENAGGKVIQWQGARVFDVLAMSRSIGDRYLKPYVIPEPEVTFMPRSREDECLILASDGLWDVMNNQEVCEIARRRILMWHKKNGAPPLAERGKGIDPACQAAADYLSMLALQKGSKDNISIIVIDLKAQRKFKTRT
# B8: H245A: HAB1 mutant (protein, UniProt Q9CAJ0 23-511, looked up, variant H245A)
# Protein phosphatase 2C 16: B7 Protein phosphatase 2C 16 with H223A, D370G
# B9: G392K: HAB1 mutant (protein, UniProt Q9CAJ0 23-511, looked up, variant G392K)
# Protein phosphatase 2C 16: B7 Protein phosphatase 2C 16 with D370K
# B10: Y404P: HAB1 mutant (protein, UniProt Q9CAJ0 23-511, looked up, variant Y404P)
# Protein phosphatase 2C 16: B7 Protein phosphatase 2C 16 with D370G, Y382P
# B11: H245P: HAB1 mutant (protein, UniProt Q9CAJ0 23-511, looked up, variant H245P)
# Protein phosphatase 2C 16: B7 Protein phosphatase 2C 16 with H223P, D370G
# B12: G392I: HAB1 mutant (protein, UniProt Q9CAJ0 23-511, looked up, variant G392I)
# Protein phosphatase 2C 16: B7 Protein phosphatase 2C 16 with D370I
# B13: Y404D: HAB1 mutant (protein, UniProt Q9CAJ0 23-511, looked up, variant Y404D)
# Protein phosphatase 2C 16: B7 Protein phosphatase 2C 16 with D370G, Y382D
# B14: E201K: HAB1 mutant (protein, UniProt Q9CAJ0 23-511, looked up, variant E201K)
# Protein phosphatase 2C 16: B7 Protein phosphatase 2C 16 with E179K, D370G
# B15: Y404T: HAB1 mutant (protein, UniProt Q9CAJ0 23-511, looked up, variant Y404T)
# Protein phosphatase 2C 16: B7 Protein phosphatase 2C 16 with D370G, Y382T
# B16: Y404G: HAB1 mutant (protein, UniProt Q9CAJ0 23-511, looked up, variant Y404G)
# Protein phosphatase 2C 16: B7 Protein phosphatase 2C 16 with D370G, Y382G
# B17: Y404S: HAB1 mutant (protein, UniProt Q9CAJ0 23-511, looked up, variant Y404S)
# Protein phosphatase 2C 16: B7 Protein phosphatase 2C 16 with D370G, Y382S
# B18: Y404K: HAB1 mutant (protein, UniProt Q9CAJ0 23-511, looked up, variant Y404K)
# Protein phosphatase 2C 16: B7 Protein phosphatase 2C 16 with D370G, Y382K
# B19: G392H: HAB1 mutant (protein, UniProt Q9CAJ0 23-511, looked up, variant G392H)
# Protein phosphatase 2C 16: B7 Protein phosphatase 2C 16 with D370H
# B20: Y404R: HAB1 mutant (protein, UniProt Q9CAJ0 23-511, looked up, variant Y404R)
# Protein phosphatase 2C 16: B7 Protein phosphatase 2C 16 with D370G, Y382R
# B21: G392F: HAB1 mutant (protein, UniProt Q9CAJ0 23-511, looked up, variant G392F)
# Protein phosphatase 2C 16: B7 Protein phosphatase 2C 16 with D370F
# B22: Y404N: HAB1 mutant (protein, UniProt Q9CAJ0 23-511, looked up, variant Y404N)
# Protein phosphatase 2C 16: B7 Protein phosphatase 2C 16 with D370G, Y382N
# B23: Y404Q: HAB1 mutant (protein, UniProt Q9CAJ0 23-511, looked up, variant Y404Q)
# Protein phosphatase 2C 16: B7 Protein phosphatase 2C 16 with D370G, Y382Q
# B24: H245L: HAB1 mutant (protein, UniProt Q9CAJ0 23-511, looked up, variant H245L)
# Protein phosphatase 2C 16: B7 Protein phosphatase 2C 16 with H223L, D370G
# B25: Y404E: HAB1 mutant (protein, UniProt Q9CAJ0 23-511, looked up, variant Y404E)
# Protein phosphatase 2C 16: B7 Protein phosphatase 2C 16 with D370G, Y382E
# B26: H245N: HAB1 mutant (protein, UniProt Q9CAJ0 23-511, looked up, variant H245N)
# Protein phosphatase 2C 16: B7 Protein phosphatase 2C 16 with H223N, D370G
# B27: H245M: HAB1 mutant (protein, UniProt Q9CAJ0 23-511, looked up, variant H245M)
# Protein phosphatase 2C 16: B7 Protein phosphatase 2C 16 with H223M, D370G
# B28: E201H: HAB1 mutant (protein, UniProt Q9CAJ0 23-511, looked up, variant E201H)
# Protein phosphatase 2C 16: B7 Protein phosphatase 2C 16 with E179H, D370G
# B29: G392E: HAB1 mutant (protein, UniProt Q9CAJ0 23-511, looked up, variant G392E)
# Protein phosphatase 2C 16: B7 Protein phosphatase 2C 16 with D370E
# Biological target: T1, PYR1
# Test: Yeast two hybrid of pACT-HAB1 site saturation mutants with pBD-PYR1 on 10 μM ABA, β-galactosidase staining
# Format: cell-based
# Design: key: x: Mutations in HAB1 that disrupt HAB1 interaction with PYR1
# Conditions: S. cerevisiae Y190, 10 μM ABA; dead = lack of detectable staining in comparison to wild type control
# Summary of the method: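 Read-out is β-galactosidase staining of chloroform-lysed Y190 colonies grown 2 days at 30 °C on SD (-Leu,-Trp) plus 10 μM ABA. Each pACT-HAB1 single-substitution mutant (N-terminally truncated by three residues) was paired with pBD-PYR1; absence of detectable staining relative to wild type scored as dead.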
row,Mutations in HAB1 that disrupt HAB1 interaction with PYR1,Molecule
1,x,B1
2,x,B2
3,x,B3
4,x,B4
5,x,B5
6,x,B6
7,x,B7
8,x,B8
9,x,B9
10,x,B10
11,x,B11
12,x,B12
13,x,B13
14,x,B14
15,x,B15
16,x,B16
17,x,B17
18,x,B18
19,x,B19
20,x,B20
21,x,B21
22,x,B22
23,x,B23
24,x,B24
25,x,B25
26,x,B26
27,x,B27
28,x,B28
29,x,B29
